Experimental data: a protein production outcome set (Wang et al. 2014)

Experiment: label from the status in PepcDB records

Sequence	protein production
MGNGVQPLDPVAIQIGSISVKWYGVIIASAVVIALLLALSEANKRKMDKEIIVDLLIWAIPISIISARIYYVIFEWDFYKNNLGEIVKIWHGGIAIYGALIGAVLTAIIFSRIKKISFWQLADVVAPSLIIAQAIGRWGNFMNQEAHGAETTRSFLESLHLPDFIINQMYIDGAYYQPTFLYESLWNVLGFVILLIIRRTKIRRGELFLGYVIWYSFGRFFIEGMRTDSLMWGDFRVSQALSLLLIVLSIGIIIYRRLKMNPPYYMEDKFGKVVKKK	not failed
KSNEIVELSVQKWINELRDANNKLQQEVSELKKKEVNLESSLSLLSSTLESTAIGIVAINFEGDILNYNQKFAEMWKLPQQLILSKKCPRCKAFFEGQMKDPETFNRLIWAVSSTSNIESYDVLELKDGRVFAHYSQPQWLGQ	failed
MTVNAKTSPSAGNTWRDLPAAQQPEYPDTEALRAVIADLESYPPLVFAGECDQLRARMAAVAKGEAFLLQGGDCAEAFDAVSADHIRNKLKTLLQMGAVLTYAASVPVVKVGRIAGQYSKPRSKPTETRDGVTLPTYRGDSVNGFDFTEAARIPDPERLKRMYHASASTLNLVRAFTTGGYADLRQVHAWNQDFVKSSPSGQRYEQLAREIDNALNFMRACGTDPAEFQTVEFFSSHEALLLDYESALTRVDSRTGQLYDVSGHMVWIGERTRQLDHAHIEFASRIRNPIGIKLGPSTTAEEALQYIERLDPEREPGRLTFIVRMGADKIRDKLPELVEKVTASGATVAWITDPMHGNTYEAASGHKTRRFDDVLDEVKGFFEVHKSLGTHPGGIHVELTGDDVTECVGGGDEIFVDDLHQRYETACDPRLNRSQSLDLAFLVAEMYRDQ	not failed
MDSSLANINQIDVPSKYLRLLRPVAWLCFLLPYAVGFGFGITPNASLQHAVLGLLSFAFWMAFSFTINALYDRDVDRLHDGRVKDLNLSMQPLVTGEISVREAWLYCIAFLALSLATAAAINEKFFLAMLGANIIGYVYSAPPRFKAWPVMDVICNALAAVLAFYAGLSIGGAEVPIAIYPAAFFLAATFYIPTAVSDYEFDKKAGLKNTPVFFGPERALKSLYPLSAITVILWAYVFLMAERIEIKVISPLIIAYTLIYTFIINSRWDGEKLNVSPNLILTPFGIISALFIAYGFAVISVLG	failed
MAANRRNETASEAHGLDDILSAAAPRPRTALPNVATTVTTVAALYFGREVFLPIAIALLLTFALAPLVSALKRVGIPRIAAVIVSVLSAFAALALFSFVVATQVSELAQNIPVYQTNILAKIRSLKETGVGGGIIAKLSNVVERVGQEIDRQDATLPAATPDKQPREPVPVEIVARERPLEVLQNIVGPLISPLGSAGLIIVVVIFMLLEREDLRDRFIRLVGYGDLHRTTEALQDAAKRVGRYLLMQLVVNIVYAIPIAIGLWILGIPNALLWGLLALALRFVPYIGPAIGMLLPLFLALAVAPGWSLVLWTAALFVVMELVTGNVVEPWLYGSRTGLSPLAIIVAAIFWTWLWGPLGLVLSTPLTVCLVVLGRHVPQFEFLDVLFGNEPVLEPHARLYQRLLAGDPDEATDHAEEMLEEKYLVEFYDKVAIPALLLGERDRARGVMGDQQRRQVAASALALVANLEDDAKEEADGDDAPHVAEAEGEPGDAVEEEATELPDGTGLSVLCAGGRGDLDDAAAAMLAQVLEVQGATASKAGFAEMEPASIRRLELETIDTVVVGFLNRDSVKHARFLVRRLKRAKAALRVGIVFWSETGNGDKEAAAKLAQDINADFVAHGMVDAVTDALSHEPPVALKLVAKRRMRRPRAAPRKVPAAAAG	failed
MDKYLSANSLEGVIDNEFSMPAPRWLNTYPAGPYRFINREFFIIAYETDPDLLQAILPPDMELLEPVVKFEFIRMPDSTGFGDYTESGQVVPVRYKGEEGGFTISMFLDCHAPIAGGREIWGFPKKLAKPKLFVEEDTLIGILKYGSIDIAIATMGYKHRPLDAEKVLESVKKPVFLLKNIPNVDGTPLVNQLTKTYLTDITVKGAWTGPGSLELHPHALAPISNLYIKKIVSVSHFITDLTLPYGKVVADYLA	not failed
MGHHHHHHSHMKPSGEDQAALAAGPWEECFQAAVQLALRAGQIIRKALTEEKRVSTKTSAADLVTETDHLVEDLIISELRERFPSHRFIAEEAAASGAKCVLTHSPTWIIDPIDGTCNFVHRFPTVAVSIGFAVRQELEFGVIYHCTEERLYTGRRGRGAFCNGQRLRVSGETDLSKALVLTEIGPKRDPATLKLFLSNMERLLHAKAHGVRVIGSSTLALCHLASGAADAYYQFGLHCWDLAAATVIIREAGGIVIDTSGGPLDLMACRVVAASTREMAMLIAQALQTINYGRDDEK	failed
MNQQEVAADYLKYFDDMLAKAADLTKDIKDADKKTVVYGNVSKFSQPHVIAEWWIDKAGGISVTSEAMTKANKESLTYTLEDLLKWNPDVMFVASAAEKKEVLADARLGEITAVKNGAIYIVPRIAHVWGNRTTEQPLTIMWAMNKLYPEIVTLEHHHHHH	not failed
MAARAWVVAVVGFFVMWLMFQVVGWVIGVIWGVWQQLDQATAGTMIEPPQDWKNMLNSLYSNMLGIWNYLPVVVLLSAVVYIIIESLRRRPEEYYV	failed
MNRFIGYIQVACCCLLLCASCVRDGMDEDCNSYVRFVYDYNLEYIDLFHKQATKMNLYVFDEKGVFVTELKEESGAFAPDYLMTLPGAMAGRRYIFVAWSGLYGESYDKVTLTPGVSTLEDLEVSVNNLKTRIGGGVVDRELHLLWHGKQTEVSPQYNNDITTVSLLKNTKKFRIIMQMLDDSSIHVDDYDFRIISPNGRYNHENGLLGDETDEKVEYTAYHTEDDPETGAIAELNTLRLMTDTENRLVITHKSSGNVILDIPLNKYLNALRLQQYADIPLQEYLDRADKHGIILFFKGMDGNGNYISVDVQINGWLIRKQEVDGV	failed
MQKFIRDFTLPAAFAGFVTFLIGISVSSVLVIQAAQILGANTPQITSWFWALGIGIGLSGLILSWKFKYPVATSWSTAGLALIIATGSGYSLHEAIGAFLLCGLLTALLGFFGVFQKALAYIPQSLTSAMLAGVLLKFGIAIFGNMQDHWQFIISLLAVYIVSKRLWPRYCIVITVIAGVMICPFFMEFHLPTLHWELAKPEWITPHFTGSAILGLALPLFVINMASQYLPGIAMIKSYGYNPNVNQLIGWTGATQTLLAPFGCYTVNIAAISAAVSLDDQVHPDPAKRYIAGISCGFFYILMGLFAATLTSLLMSFPSLFIVALAGIALFGTISHNIAIAFQEPTDREAALLTFLCSASGIQFFGIGSAFWGLIVGVIVSMVLKTKFKKS	failed
MMQIDSIEIGGKVYQFFKSDLGNAPLLFIKGSKGYAMCGYLNMETSNKVGDIAVRVMGVKTLDDMLSAKVVEASQEAQKVGINPGDVLRNVIDKL	not failed
MTPTPSFAAYVGAHWAAVVIYVIATVVNVYGLLFRSEPAERWSYRLISVGWMIHSVVIAYWWWVTGHGPYLSRNEVLSSDAWIALTVFMCFQRLYPRVRPASIVVFPSVFLMIALGLFFDVQIRTLPPTFSGIWLVIHIAFYKIALGTILIALACSIFLVLKKRTPFAWLQRLPDLESLDLHAYRFAGFGFIIWAIAMLAGSIWAYKSWGRFWGWDPVENWSLITWILFGIHLHLRRFFRWSGERAALFYVVCFIFSLVALFYTSHMDTSIHMEYFR	failed
MKRSTRFQQRSLFAIGGLGLLIGVAFVLVQFRATLIFTVFLYYASRPIYRKLESVSTPSYFSEYSLPYRRQILAVTTISVFLLPFLLLFTYTLALVVPAVQQFIGQNDLASGYLSAIQSADSGGLPEPIAGLQISDLLDMSPEEIVTILNAPSVRTWIEQTLGTLISSIGVFADVGIQAFLLLSGTYYLLTDGPRLSRWLFDHFDESGVVESYAIAVDDELSSILFGNILNALVTGIIGIVVFSAYNSISPAAVQVPFAPLVGALTGAGSLIPVVGMKIVYFPVGAILTVGAVASGQATAIGYVLLFLILAFVVVDTIPDFLIRPYVSGNRTHVGLLMFAYILGPIVFGAYGIFLGPILLVLVAQFFRTVAPYVATGEPPDQSKLYEY	failed
TKEHRAAARKIAGESFVLLKNEGLSPTLAPVLPLSPTGTIAVIGPLANTRSNMPGTWSVAAVLDKSPSLVEGLTEWVGNQGKILYAKGSNLIGDAAYEERATMFGRSLNRDNRTDQQLLDEALKIASQADVIVAALGESSEMSGESSSRTNLNLPDVQHTLLEALLKTGKPVVLVLFTGRPLVLNWEQEHVPAILNVWFGGSEAGPAIGDVLFGAVNPGGKLTMTFPKSVGQIPLYYAHKNTGRPLKEGKWFEKFRSNYLDVDNDALYPFGYGLSYTTF	failed
MQSPNNDYNATSKRGWFTRFLDGVEWLGNLLPHPITLFAVFCLFIIFISGIAAYFGVSAVDPRDGETVIKAVSLLNAEGIQRIVTNLVTNFTGFTPLGTVLVALLGVGVAERSGLISAAMRGLVMKAPPRLVTVTIVFAGVISNTAAELGYVVLVPLAAMIFYGLGRHPLAGLSAAFAGVSAGYSANLLIGTVDPLLSGITEEAAKIIDPAYTVGAEANWYFMMVSTFLIAIMGALITDKIVEPKLGKYNKDEASIDLSDQSSMDPLNKQEKRGLIYAGLSVLVLAGILALTVVPEWGILRHPETGDVKGSPFLKGVVVYIFFFFAIPGFVYGRTVETMRNDRDVIDAMSHSMSTMGMYIVLVFFAAQFVNFFKWTNFGTIFAINGAEFLTNIGMTGPIIFLFFIMVCGFVNLMLGSASAQWAITAPIFVPMLMLVGYSPEVIQAAYRIGDSVTNVITPMMSYFGLILAVAARYKKDLGIGTLVAMMLPYSMFFFVGWSVLFFLWVFVFGFPVGPAAPTYYN	not failed
MTRTSKIAVIGGGMAGLAAAAGFDDAGFVVELYERQSYDSKRVNCGEAMTAVSKIPLEPTVENGFLNPLPAMEVEVYDGIDADRHRTGAGTFPAADTYITDRNVVEQSWAEQLSEKGVDIHENQSITRTDFHEFTDEYDLVVDATGQPSLSSKALGTTNEYSGYMVALNSDVEGDFTELYPNSRIILENYTGYSWAFPKTSQRANVGIGWTVSDRPSDYMKALREACKRNGWPVPSQERTNVAIIPEGPSLDPDRTYLPEHSVVRVGDAAGIANRLTGKGISQAVESGFLAAELANSGQLHNFPDSLYQRMKTEYIFATVVRYFLETRNPKVLGAAIRAAAGIDIEDVDRSPSTVLLRLLRHPVLFARIFSRRRVLNRVYGGMTNQWELIN	failed
MADEMMVKELEEVVVRFSGDSGDGMQLAGNIFSNVSATVGNDICTFPDYPADIRAPQGSLTGVSGFQVHVGASKIFTPGDHCHVLVAMNPAALKTQIKFCKPQGLVITDSDSFGEKDLEKAQFKTGNPFEEMGITQQVLEVPISSMCKESLKNSGLDNKAMLRCKNMFALGLVCWLFNRNLSAAEKMLNEKFAKKPEIAAANIKVLNDGYNYGANTHASTSTYKIESKTPKAAGLYTDINGNKATSYGLIAAAEKAGLELYLGSYPITPATDILHELAKHKSLGVKTVQCEDEIAGCASAVGAAFAGDLAVTTTSGPGVCLKSEAMNLAVIAELPLVVVNVQRGGPSTGMPTKSEQTDLLQALYGRNGESPMPVIAATSPTNCFDAAYMAAKIALEHMTPVVLLTDAFIANGSAAWKLPNMDEYPAINPPYVTPDMIGTWTPFQRNEKTGVRYWAVPGTEGFMHRIGGLEKSSETGVISTEPENHQKMTLLRQAKVDKIADSIPEQEVQGDADADLLVVGWGGTYGHLYSAVEHMRKNGKKVALAHFQYINPLPKNTAEILKKYKKIVVAEQNLGQFAGYLRMKVPGLNISQFNQVKGQPFVTRELVEAFTKLLEE	not failed
MGHHHHHHSHMSIPSSQYGFVFNKQSGLKLRNDLPVHKPKAGQLLLKVDAVGLCHSDLHVIYEGLDCGDNYVMGHEIAGTVAAVGDDVINYKVGDRVACVGPNGCGGCKYCRGAIDNVCKNAFGDWFGLGYDGGYQQYLLVTRPRNLSRIPDNVSADVAAASTDAVLTPYHAIKMAQVSPTSNILLIGAGGLGGNAIQVAKAFGAKVTVLDKKKEARDQAKKLGADAVYETLPESISPGSFSACFDFVSVQATFDVCQKYVEPKGVIMPVGLGAPNLSFNLGDLALREIRILGSFWGTTNDLDDVLKLVSEGKVKPVVRSAKLKELPEYIEKLRNNAYEGRVVFNP	not failed
